Reference: doi:10.1101/2025.11.16.688667

Target: Rabbit skeletal actin (actin filaments) (rabbit) (UniProt P68135)
Test: high-speed atomic force microscopy

Work on “Recombinant human alpha-actinin-1 ABD-E235K (from UniProt P12814 1-892) (domain or fragment)” yielded a dwell time at 1 uM ABD-E235K of 0.39 s, a dwell time at 2 uM ABD-E235K of 0.4 s and a dwell time at 3 uM ABD-E235K of 0.51 s.
